Legend:
Format in all cases: cell-based
LNCaP C4-2 cells [1] = assay: MTT assay (cell survival); conditions: for cell survival: 400 ng/ml TRAIL and/or 10 μM Mifepristone for three days, FIG. 1B
Protocol: (§1) LNCaP were obtained from American Type Culture Collection (Rockville, Md.) and LNCaP C4-2 cells were purchased from Urocor Inc., Oklahoma City, Okla. Cells were grown in RPMI 1640 medium supplemented with 10% (LNCaP) or 5% (LNCaP C4-2) fetal bovine serum (Hyclone, Logan, Utah) and grown in the presence of 5% CO2 at 37° C. Cells were treated with 10 μM Mifepristone (Sigma, St. Louis, Mo.) for three days or with increasing concentrations (from 200 ng/ml to 600 ng/ml) of TRAIL (Biomol Research Laboratories, Inc., Plymouth Meetings, Pa.) for varying time intervals 2, 4, 6, 8, 16, 20 and 24 hours (hr). Thus, for treatment with Mifepristone, cells were treated with Mifepristone for three days and then some cells treated (without washing) with TRAIL for indicated periods. Upon completion of the experiment, cells were harvested, and total proteins, cytosol or mitochondrial fractions were isolated as described below. At least three experiments were conducted with a minimum of four plates per treatment per experiment. Two methods were used to measure induction of apoptosis by drug treatment: the MTT assay and the Apoptosense assay. The MTT assay measures mitochondrial enzyme activity and is indicative of the number of surviving cells. […] Cells were seeded in 96-well plates (6000 cells/well) and treatment was started 24 hr after seeding the cells. After completion of the treatment, cells were incubated at 37° C. with the MTT reagent for 3 hr and processed according to manufacturers instructions (Promega Corporation, Madison, Wis.). Color development was measured at 490 nm on a Spectra MAX 340 microplate reader (Molecular Devices, Menlo Park, Calif.).

LNCaP cells [2] = assay: MTT assay (cell survival); conditions: for cell survival: 400 ng/ml TRAIL and/or 10 μM Mifepristone for three days, FIG. 1A
Protocol: as §1

LNCaP C4-2 cells [3] = assay: Apoptosense assay (M30 ELISA, cleaved cytokeratin 18)
Protocol: LNCaP were obtained from American Type Culture Collection (Rockville, Md.) and LNCaP C4-2 cells were purchased from Urocor Inc., Oklahoma City, Okla. Cells were grown in RPMI 1640 medium supplemented with 10% (LNCaP) or 5% (LNCaP C4-2) fetal bovine serum (Hyclone, Logan, Utah) and grown in the presence of 5% CO2 at 37° C. Cells were treated with 10 μM Mifepristone (Sigma, St. Louis, Mo.) for three days or with increasing concentrations (from 200 ng/ml to 600 ng/ml) of TRAIL (Biomol Research Laboratories, Inc., Plymouth Meetings, Pa.) for varying time intervals 2, 4, 6, 8, 16, 20 and 24 hours (hr). Thus, for treatment with Mifepristone, cells were treated with Mifepristone for three days and then some cells treated (without washing) with TRAIL for indicated periods. Upon completion of the experiment, cells were harvested, and total proteins, cytosol or mitochondrial fractions were isolated as described below. At least three experiments were conducted with a minimum of four plates per treatment per experiment. Two methods were used to measure induction of apoptosis by drug treatment: the MTT assay and the Apoptosense assay. The MTT assay measures mitochondrial enzyme activity and is indicative of the number of surviving cells. […] Cells were plated in petri dishes and after completion of the treatment, cells were harvested and total protein extracted as described below. […] Color was developed by adding tetramethylbenzidine solution and the optical density of the bound antibody was determined at 450 nm on a Spectra MAX 340 microplate reader (Molecular Devices, Menlo Park, Calif.). Standard solution supplied by the supplier was used for generating standard curves.

LNCaP C4-2 cells [4] = assay: Caspase-9 colorimetric activity assay; conditions: FIG. 4B
Protocol: (§2) LNCaP were obtained from American Type Culture Collection (Rockville, Md.) and LNCaP C4-2 cells were purchased from Urocor Inc., Oklahoma City, Okla. Cells were grown in RPMI 1640 medium supplemented with 10% (LNCaP) or 5% (LNCaP C4-2) fetal bovine serum (Hyclone, Logan, Utah) and grown in the presence of 5% CO2 at 37° C. Cells were treated with 10 μM Mifepristone (Sigma, St. Louis, Mo.) for three days or with increasing concentrations (from 200 ng/ml to 600 ng/ml) of TRAIL (Biomol Research Laboratories, Inc., Plymouth Meetings, Pa.) for varying time intervals 2, 4, 6, 8, 16, 20 and 24 hours (hr). Thus, for treatment with Mifepristone, cells were treated with Mifepristone for three days and then some cells treated (without washing) with TRAIL for indicated periods. Upon completion of the experiment, cells were harvested, and total proteins, cytosol or mitochondrial fractions were isolated as described below. At least three experiments were conducted with a minimum of four plates per treatment per experiment. As caspase-9 is a key protein in the formation of apoptosome, assays were performed to determine the activity of caspase-9. Caspase-9 activity was assayed using a colorimetric substrate, […] with a kit from Chemicon International, Inc. (Temecula, Calif.). Cleavage of the C-terminal peptide bond by the enzyme released p-nitroaniline, which was measured at 405 nm. Pure recombinant human caspase-9 was utilized as a positive control.

LNCaP cells [5] = assay: Caspase-9 colorimetric activity assay; conditions: FIG. 4A
Protocol: as §2

[6] = 200 ng/ml TRAIL compared with 400 ng/ml, data not shown
[7] = 600 ng/ml TRAIL compared with 400 ng/ml, data not shown

## CC#C[C@]1(O)CC[C@H]2[C@@H]3CCC4=CC(=O)CCC4=C3[C@@H](c3ccc(N(C)C)cc3)C[C@@]21C [Mifepristone]
LNCaP C4-2 cells [1]
  cell survival: little effect on survival
LNCaP cells [2]
  cell survival: little effect on survival
LNCaP C4-2 cells [3]
  M30 activity (in words): lower M30 activity
LNCaP C4-2 cells [4]
  caspase-9 activity: induced caspase-9 activity
LNCaP cells [5]
  caspase-9 activity: induced caspase-9 activity

B1: Tumor necrosis factor α—Related Apoptosis Inducing Ligand (protein, UniProt P50591 1-281, looked up)
Tumor necrosis factor ligand …: MAMMEVQGGPSLGQTCVLIVIFTVLLQSLCVAVTYVYFTNELKQMQDKYSKSGIACFLKEDDSYWDPNDEESMNSPCWQVKWQLRQLVRKMILRTSEETISTVQEKQQNISPLVRERGPQRVAAHITGTRGRSNTLSSPNSKNEKALGRKINSWESSRSGHSFLSNLHLRNGELVIHEKGFYYIYSQTYFRFQEEIKENTKNDKQMVQYIYKYTSYPDPILLMKSARNSCWSKDAEYGLYSIYQGGIFELKENDRIFVSVTNEHLIDMDHEASFFGAFLVG
notes: 281 amino acid type II transmembrane protein of the tumor necrosis factor α family; purchased from Biomol
LNCaP C4-2 cells [1]; [6]
  cell death at lower concentration of TRAIL: lower cell death
LNCaP C4-2 cells [1]
  cell survival: reduced cell survival as early as 8 hr
LNCaP C4-2 cells [1]; [7]
  apoptosis at higher dose of TRAIL: did not increase apoptosis significantly
LNCaP cells [2]; [6]
  cell death at lower concentration of TRAIL: lower cell death
LNCaP cells [2]
  cell survival: did not alter cell survival significantly
LNCaP cells [2]; [7]
  apoptosis at higher dose of TRAIL: did not increase apoptosis significantly
LNCaP C4-2 cells [3]; between 8 hr to 20 hr treatment, FIG. 1D
  M30 activity: 1.4-2.0 U/ug
LNCaP C4-2 cells [4]
  caspase-9 activity: induced caspase-9 activity
LNCaP cells [5]
  caspase-9 activity: induced caspase-9 activity
